We go through 41 sequences from the nanobody polyreactivity screen of Harvey et al. (2022).

The nature of the data set: yeast display, Sf9 membrane polyspecificity reagent, FACS + sequencing; frameworks hold sequencing errors. Put shortly: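 Using colony PCR, genes from sorted yeast display clones were amplified, then sequenced on MiSeq at 2 × 250 and filtered by CDR length. The clones had been stained with 10% biotinylated, detergent-solubilized Sf9 membrane reagent for 1 hour at 4 °C and sorted by FACS into low and high (top ~1%) gates on anti-HA and streptavidin fluorescence. Polyreactivity labels come from the gate of origin.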
Take “QVQLVESGGGLVQAGGILRISCAASGFIFWKNAMGWYRQAPGKERELVAAISRGGSTYYADSVKGRFTISRDNAKKTVYLQMNSLKPEDTAFYYCNKVGGATDKYLYYYWGQATQVTVSS”: the “polyreactivity (PSR sort gate)” value is listed as “high polyreactivity”.
Regarding “QVQLVESGGGLVQAGGSLRLSCAASGSTSASYAMGWYRKAPGKERELVAAISGRGTTTYYADSVKGRFTISRDIAKNSVYLQMNSLKPEDTAVYYCAVYRRGGVEAFLYWGQGTQVTVSS”, the “polyreactivity (PSR sort gate)” value was “high polyreactivity”.
“QVQLVESGGGLVQAGGSLRLSCAASGFIILINVMGWYRQAPGKERELVAVITGGGTTNYADSVKGRFTFSRDNAKNTVYLQMNSLKPEDTAVYYCAVDAGAGDNDYWGQGTQVTVSS”: the “polyreactivity (PSR sort gate)” value is “low polyreactivity”.
Regarding “QVQLVESGGGLVQAGGSLRLSCAASGSTFSRNTMGWYRQAPGKERELVAAITRSGDSTYYADSVKGRFTISRDNAKKTVYLQMNSLKPEDTAVYYCAARRAYLNYYYWGQGTQVTVSS”, the “polyreactivity (PSR sort gate)” value is listed as “high polyreactivity”.
Then “QVQLVESGGGLDQARGSLRLSCAASGRIFRSYVMGWYRQAPWKERELVAAISWRGGSTYADSVKGRFTISRDNAKNTVYLQMNSLKPEDTAVYYCAARGPYTYRRYCYWGQGTQVTVSS”, with “high polyreactivity”; and “QVQLVESGGRLVQAGGSLRISCDASGFIFVRNAMGWSRQAPGTEWELVAASTLCTGSTYYADSVKGRFTISRDNAKITVYLQMKSLKPEDTAVYYCNANKRIRPYRPGMDYWGHGTQVTVSS”, with “high polyreactivity”.
For “QVQLVESGGGLVQAGGSLRLSCAASGRTFRFYTMGWYRQAPGKERELVAAIYWRGSSTYYADSVKGRFTISRDNAKNTVYLQMNSLKPEDTAVYYFAKKSYANEYDYWGQGTQVTVSS”, the “polyreactivity (PSR sort gate)” value is recorded as “high polyreactivity”.
For “QVQLVESGGGLVQAGGSLRLTCAASGSIFYYNAKGWYRQAPAKERELVATITQTGGSTYYADSVKARFTISRDNAKNTVYLQMNSLKPEDTAVYYCASDYFPYEYDYWGQGTQVTVSS”, the “polyreactivity (PSR sort gate)” value is reported as “low polyreactivity”.
Turning to “QVQLVESGGGLVQAGGSLRLSCAASGSIFKIYAMGWYRQAPGKERELVARITRRGGRTNYADSVKGRFTISRDNAKNTVYLQMNSLKPEDTAVYYCASLGRRGGDYWGQGTQVTVAS”, the “polyreactivity (PSR sort gate)” value is “high polyreactivity”.
Take “QVQLVESGGGLGQAGGSLRLSCAASGLIFVRNDMGWYRQAPGKERELVADISDGSTYADSVKGRFTISRDNAKNTVYLQMNSLKPEDTAVYYCNKDNHDVELPVEFEYWGQGTHVTVSS”: the “polyreactivity (PSR sort gate)” value was “high polyreactivity”.
Consider “QVQLVESGGGLVQAGGSLRLSCAASGFTFLYNAMGWYRQAPGKERELVASIRTGTGTYYADSVKGRFTISRDNAKNTVYLQMNSLKPEDTAVYYCAAENFYPYTYYASDYWGQGTQVTVSS”, for which the “polyreactivity (PSR sort gate)” value is “high polyreactivity”.
With “QVQLVESGGGLVQAGGSLRLSCAASGRTFVYYAMGWYRQAPGKEREFVAAISRSGGHTSYADSVKGRFTISRDNAKNTVYLQMNSLKPEDTAVYYCAAEKRTQPTSREYYWGQGTQVTVSS”, the “polyreactivity (PSR sort gate)” value is listed as “high polyreactivity”.
In the case of “QVQLVESGGGLVQAGGSLRLSCAASGRIFEDYMVWYRHAPGKDRELVAAIRWSGGGTYYADSVKGRFTISRDNAKNTVYLQMTSLKPEDTAVYYCATPGTGSVEVYGYWGQGTQVTVSS”, the “polyreactivity (PSR sort gate)” value is “low polyreactivity”.
As for “QVQLVESAGGVVQAGGSLRLSCAASGRIFGYNTMGWYRQAPGKERELVAAISGSGASTYYADSVKGRFTISRDNAKNTVYLQMNSLKAEDTAVYYCAAKAYYSTSPYHREHDSWGQGTQVTVSS”, the “polyreactivity (PSR sort gate)” value is listed as “low polyreactivity”.
Consider “QVQLVESGGGLVQAGGSLRLSCAASGSIFVIYAMGWYRQAPGKERELVAAITDSATTNYADSVKGRFTISRDNAKNTVYLQMNSLKPEDTAVYYCAAEYSSYPTAWSTYEFDYWGQGTQVTVSS”, for which the “polyreactivity (PSR sort gate)” value was “low polyreactivity”.
Regarding “QVQLVESGGGLVQAGGSLRLSCAASGSSFYTNAMGWYTQAPGKERELVAAISSSGDSTYYADSVKGRFTISRDNANNTVYLQMNSLKPEDTGVYYCNADRRSYNGFRYYYWGQGTQVTVSS”, the “polyreactivity (PSR sort gate)” value was “low polyreactivity”.
Turning to “PVQLVESGGGLVQAGGSLRLSCAASGSTFRFYTMGWYRQAPGKERELVAAISGSGGSTYYADSVKGRFTISRDNAKNTVYLQMNSLIPEDPAVYFCAADKSRNASHRGYWGQGTQVTVSS”, the “polyreactivity (PSR sort gate)” value is given as “low polyreactivity”.
Then “QVQLVESGGGLVQAGVRLRLSCAASGITFYINAMGGYRQAPGKERELVAVIDSRGSSTFYADSVKGRFTISRDTAKNTVYLQMNSLKPEDTAVYYCAAEAPSWYDRQYDYCGQGTQVTVSS”, with “low polyreactivity”.
Regarding “QVHLVESGGGLVQAGGSLRLSCAASGRTFDDYAMGWYRQAPGKERELVAAISSSGGSTYYADSVKGRFTISRDNAKNTVYLQMNSLKPEDTAVYYCAADYDWGYWYDYWGQGTQVTVSS”, the “polyreactivity (PSR sort gate)” value is “low polyreactivity”.
Regarding “QVQLVESGGGLVQAGGSLRLSCAASGRTFTWYAMGWYRQAPGKERELVAAISFSGGSTYYADSVKGRFTISRDNAKNTVYLQMNSLKPEDTAVYYCARPSGDAWEGPRMDYWGQGTQVTVSS”, the “polyreactivity (PSR sort gate)” value was “low polyreactivity”.
Consider “QVQIVESGRGLVQAGGSLRLSCAASGLTFARNAMGWSRPAPGKQRELVAAITSGASTTYADSVKGRITISRDNAMNTVSVQMNSLKPEDTAVYYCAAPGYWVRTYGGWSRLDYWGQGTQVTVSS”, for which the “polyreactivity (PSR sort gate)” value is “high polyreactivity”.
Then “QVQLVESGGGLVQAGGSLRLSCAASGRTYGNYAMGWSRPAPGKERELVAGITYRSGRTYYADSVKGRFTISRDNAKITFYLQMNSLKPEDTAVYYCAAASYYLTPKHDYWGQGTQVTVSW”, with “high polyreactivity”.
On to “QVQLVESGGGLVQAGGSLRLSCAASGITFDKYAMGWNRQAPGKERELDAAISGSDGSTYYADSVKGRFTISRDNAKNTVYLQMNILKPEDTAVYYCAAESEYAGTYEYDYWGQGTQVTVSS”, for which the “polyreactivity (PSR sort gate)” value was “low polyreactivity”.
With “QVQLVESGGGLVQAGGSLRLSCAASGSIFVPYAMGWYRQEPGKERELVAAISRRGGRTNYADSVKGRFTISRDNAKNTVYLQMNSLKPEDTAVYYCADGWRGVYYTRYDSWGQGTQVTVSS”, the “polyreactivity (PSR sort gate)” value is listed as “high polyreactivity”.
Under “QVQLVESGGGLVQAGGSLRLSCAASGRTLLANAMGWYRQAPGKARELVAAITWTGGRTNYADSVKGRFTISRDNAKNTVYLQMNSLKPEDTAVYYCAADIFYEQVVGGTDVGYHDFDYWGQGTQVTVSS” stands “low polyreactivity”; under “QVQLVESGGGLVQAGGSLRLSCAASGRIFKYYTMGWSRQAPGKERELVAAISRDDSTNYADSVKGRFTISRDNAKNTVYLQMNSLKPEDTAVYYCAKGYHQYAGFYYWGQGTQVTVSS”, “high polyreactivity”; under “QVQLVESGGGLVQAGGSLRLSCAASGFIFSNNAMGWYRQAPGKERELVAAISGRGGSTYYADSVKGRFTISRDNAKNTVYLQMNSLKPEDTAVYYCNALYTYSYSRFDYWGQGTQVTVSS”, “low polyreactivity”.
For “QVQLVETGGGLVQAGGILRLSCAASGLIFTGNVMGWYRQAPGKESELVAAISRSGGRTYYADSVKGRFTISRDNAKNTVYLQMNSLKPEDTAVYYCNKVSPERVYYGSYFRYYYWGQGTQVTVSS”, the “polyreactivity (PSR sort gate)” value was “high polyreactivity”.
On to “QVQLVESGGGLVQAGGSLRLSCAASGSIFDSYDRGWYREAPGKERELVAAITSGGSTNYADSVKGRFTISRDNAKNTVYLQMNSLKPEDTAVYYCAAYYWYPVYYGYDYGGQGTQVTVSS”, for which the “polyreactivity (PSR sort gate)” value was “low polyreactivity”.
In the case of “QVQLEESGGGLVQAGGSLRLICPASGRTFIRKAMGRYRQAPGKERELVASIRWSGGSTYYADSVKGRFTISRDNAKNTVYLQMNSLKTEDTAVYYCAASRWRPLERGTTWLHDYWGQGSQVTVSS”, the “polyreactivity (PSR sort gate)” value is “low polyreactivity”.
With “QVQLVESGGGLVQAGGSLRLSCAASGRIFAFYAMGWYRQAPGKERELVAAISWSGGSTYFADSVKGRFTISRDNAKNTVYLQMHSLIPEDTAVYYCAAYRTRGSAYPYDYWGQGTQVTVSS”, the “polyreactivity (PSR sort gate)” value is reported as “high polyreactivity”.
“QVQLVESGGGLVQGGGSLRLSCASSGNTFYYYAMGWYRQAPGKERELVAAITRGGSTNYADSVKGRFTISRDNAKNTVYLEMISLKPEDTSVYYCAAEQRAPRFADYDYWGQGTQVTVSS”: the “polyreactivity (PSR sort gate)” value is “low polyreactivity”.
As for “QVQLVESGGGLVQAGGSLRLSCAASGRIFIGYAMGWYRQAPGKERELVAGISQRGGRTYYADSVKGRFTISRDNAKNTVYLQMNSLKPEDTAVYYCNKRFSLGYRGGYWGQGTQVTVSS”, the “polyreactivity (PSR sort gate)” value is on record as “high polyreactivity”.
For the sequence “QDQLVESGGGLVQEGGSLRLSCAASGRIFVGYAMGWSRQAPGKERELVAAISSSGGRTYYADSVKGRFTISRDNAKNTVYFQMNSLQPEDTAVYYCAAGRFIWGTWALDYWGQGTQVTVSS”, the “polyreactivity (PSR sort gate)” value is given as “high polyreactivity”.
“QVQLVESGGGLVQAGGSHRLSCAASGSIFRRYAMGWYRQAPGKERELVAAIDSGGNTYADSVKGRFTISRDNAKNTVYLQMISLQPEDTAVYYCSADGGEFSSYGYWGQGTQVTVSS”: the “polyreactivity (PSR sort gate)” value is reported as “low polyreactivity”.
Consider “QVQLVESGGGLVQAGGSLRLSCAASGIIFPPYTMGWYRQAPGKERELVAAINTRGSRTYYADSVKGRFTISRDNAKNTVYLQMNSLKPEDTAVYYCAADVWWSTTYDYWGQGTQVTVSS”, for which the “polyreactivity (PSR sort gate)” value is on record as “high polyreactivity”.
Under “QVQLVETGGLLVQAGGSLRLTCAGSGLIFYYYAMGCYRQAPGKERELVATISWYGGSTYADSVKGRFTISRDNAKNTVYLQMNSLKPEDPAVYYCAARYFVYYLEVDYWGQGTQVTVSS” stands “low polyreactivity”; under “QVQLVESGGGLVQAGGSLRLSCAASGSIFRDNVMGWYRQAPGKERELVAAITQRGGSTYYADSVKGRFTISRDNAKNTVYVQMNSLKPEDTAVYYCNARRYVLRYNRFYYWGQGTEVTVSS”, “high polyreactivity”.
For “QVQLVESGGGLVQAGGSLRLSCAASGSTFQINAMGWYRQAPGKEREFVAAITVSSGSTYYADSVKGRFTISRDNAKNTVYLQMNSLKPEDTAVYYCAADYWGQGTQVTVSS”, the “polyreactivity (PSR sort gate)” value is “low polyreactivity”.
On to “QVQLVESGGGLVQAGGSLRLSCAASGSIFYRYALGWYRQAPGKERELVAALSYSGGSTYYADSVKGRFTISRDNAKNTVYLQMNSLKPQETAVYYCANDSPPPISDYSRYYGYGYWGQGTQVTVSS”, for which the “polyreactivity (PSR sort gate)” value is reported as “low polyreactivity”.
In the case of “QVQLQESGGGLVQAGGSLRLTCAASGSISRLDYMGWYRQASGKERELVAAIDNGSTTYYADSVKGRLTISRDNAKYTVYLQMNSLKPEDTAVYFCAAVRGRGGTHAYWGQGTQVTVSG”, the “polyreactivity (PSR sort gate)” value is “low polyreactivity”.
